System: K4 kissing-loop RNA reporter
Test: apparent KD of K4 kissing-loop reporter; higher = weaker reporter binding
Conditions: Eterna round: R107
Description: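 RNA-MaP round R107: designed RNA switches with theophylline, tryptophan, arginine or FMN aptamers are transcribed on-chip within common flanks. They are titrated with a labelled K4 kissing-loop RNA reporter in RNA-MaP buffer (100 mM Tris pH 7.5, 80 mM KCl, 4 mM MgCl2), without ligand or with the indicated ligand. Median apparent KD per design.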

[1] = input ligand: theophylline 20 uM
[2] = input ligand: tryptophan 2.4 mM
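Further: bound reporter read as fluorescence of individual clusters on recovered sequencing chips by microscopy, with normalized cluster intensities fitted with a binding model.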

Sequence	apparent KD of K4 kissing-loop reporter (input ligand: FMN 200 uM) [nM]	apparent KD of K4 kissing-loop reporter (input ligand: arginine 13.2 mM) [nM]	apparent KD of K4 kissing-loop reporter (input ligand: none) [nM]	apparent KD of K4 kissing-loop reporter [1] [nM]	apparent KD of K4 kissing-loop reporter [2] [nM]
AAAAUAAACCAGUGAUGUUGGUAUCCGGAUACCAGCGAUAAUCAUCGCCCUUGGCAGCCGCGGACGUACAAAAUAAGUACGUCCU [MatMod 14 - Jieux - Same State - Theophylline A]	208	135	175	268	182
GGCUCCUACGGAGGAUAUAGUAGCCCAGAGUGAUGUUCUAGGGUGUUUUCCGAUUUAGUCAUUGUUCUAGAAGGCCGUAGGAGCC	266	177	189	183	210
CGUGCCCGGCCGGAUACCAGUGACCCGCUGGGAACCGCGGGCCCAGAGUGAUGUUCGGGACACCCUUGGCAGCCGCCUGGGCGGC [#2 Same State - Theophylline B Attempt #13 (HarryS)]	987	637	1080	614	655
GUUACGCAUGGAAGGAGCGCAGGCUCAACUUGAAGCUCAGUGAUGUUGAGCAAAUUAAAACUGCAGGUAGGUCGCCAUGUGUAAC [Ex Arginine B K4 27]	548	474	655	644	448
GCAUCCAUGGCAGGAUAUAGGUUCGUGGAGUGAUGUUCCAUAGCCCGAGUGAUGUUCGUUAUCCACCUAGAAGGGCCAUGGAUGC [whbob_Ex_FMNB__2th212]	270	205	246	211	210
UUUCUUUUUUUGAUGUUUUUUGUAUAAUGGCAGGAUAUCGUAGAUGCGAGAAGGGCUUUUAUGCGUUAUGAGUGAUGUUUGUAGG [aaxazvmullin]	324	270	320	272	256
UUUCGGUUCUGAGGAUAUUCGGACAAAUAUAGUGAUGUUGUAUAAGGAGGAGGGUGUUGGCAGUGCGGAGAAGGCAGACCACGAU [ExFMNB.X]	869	720	747	575	621
AAGUGAUGUUGUAGUGAUGUUGUGAUGUUGCAGGAUAUAUAGUGAUGUAGAAGGGUAUGUGCAGUGUUGUUAUUUGAGUGUUGAU [zffdmullin]	89.7	41.4	78.7	73.8	66.9
UAGGGUUGAAAAGGAUAUUUACCCUAUGUCAACGAGUGAUGUUCGUGGACAUUAGGCACAACUCGUAAAGAAGGUUUCCAGACUC [theeternabot_sameState_KL_FMN_B_39]	93	87.5	95	97.5	95.7
UGAUACCAGGCGGCCGCCACUCCUACAGGUCAAAGACCUGUAAAACUGGUUUUUUAGUGAUGUUGGAGGACCGGGCCUGGUAUCU [FiskerMod 28 - Jieux - Exclusion - Tryptophan B]	181	108	178	183	177
AGAGUGAUGUUUUUUUGAAGUGAGUAAAGUCGAGGACCGGUACGGCCGCCACUCGAGUGAUGUUAGUGAUGUUGAUGUAGUGAUG [xxzmullin]	110	69	90.9	105	75.4
CGAUCUGAUAGCAGUGAUGUUGCUACAGAUACCAGUCCAGAUCGAGACCCUUGGCAGCUGACCCGGCAUGUGCUAUGGUAGAUCG [Theo A Ex t1]	156	127	155	154	146
AAAACGCUGGAUGAAUAACAUCUAGCGAAUCGAGGACCGGUACGGCCGCCACUCGGAGCUAAACUGCGAGUGAUGUUCGUAAAAU [Mat - Mod of OpenEnded 3 - D18]	405	223	588	426	428
GCGGCGGGCCAAGGAUAUAUUUUGGAGUGAUGUUGUUCAUUUAUUUGAGCUAGUGAUGUUGGUCGAAUAGAAGGUGGCCCGCCGC [whbob_Ex_FMNB__2th219]	65.8	29.4	56.9	35.9	46
GGGAAGGAGUGAUGUUUCUUCUGAAUUUCUAAGGAUAUACGAUGCGGUAGAAGGUAGAUGCCUUGCAGGAAAUGUUCACCACGCG [theeternabot_exclusion_KL_FMN_A_2]	218	146	150	184	158
AUUAUAUUGUGAAGGAGCGCGAAUAGCAGUGAUGUUGCUAUCAAACGAUAUAUUAUUUACACGCAGGUAGGUCGCACAAUAUAUA [JR_Nu_SSArginiB_Sub022]	171	125	149	124	155
UCCUGCAAUCUGCCACGAAAGUGGGUUGAUACCAGAGUCGAAAGACUCCCUUGGCAGCGAGUGAUGUUCGUUGCAGGUGAAUAAA [MatMod 9 - Jieux - Exclusion - Theophylline A]	118	264	444	309	323
GCUCAGGAGUGAUGUUCCUAGUGAUGUUAACGAGGACCGGUACGGCCGCCACUCGAUACGGCCGGACCGUAGGAUAAACUAGAGC [Same State - Tryptophan A (Freestyle 10)]	292	238	261	351	340
CUCUAACUGAGAAGGAGCGCGAUAUAAACACUCGCACAGUGAUGUUGUGUGUCAAGGGUAUCGCAGGUAGGUCGCUCAGAUACCU [Arg B SS t15]	294	247	255	273	248
UCUGGAGCAUAUGAUACCAGCAGUGAGAGACAGGAAGUAUAGUGAUGUUAUAUGAGAGAAUGCCCUUGGCAGCGUGUGCAGUGGG [SSTheophylB.O]	119	157	108	119	75.2
CGCAGUGAUGUUGCGAAUAUAAUAACGGAAGGAGCGCGUGAAAACGCAGGUAGGUCGCCGAUUGGUAUGAUGGAAACAUCGUACC [Arginine A K4 9]	154	134	125	115	122
